Test results taken from US20230257454A1 (STAIDSON BEIJING BIOPHARMACEUTICALS, published 2023).

Columns and labels:
[1] = molecular target: T1, native full-length human complement component C5 (human, UniProt P01031 19-673; P01031 678-1676); assay: ELISA, plate coated with human native C5, full-length antibody titrated, OD410
T1 construct: mature; The native protein has two disulfide-linked chains (alpha and beta) made from one precursor; also called human native C5

[2] = molecular target: T2, C5a-E8A; assay: ELISA on the coated C5a protein, antibody titrated, OD410
T2 single chain: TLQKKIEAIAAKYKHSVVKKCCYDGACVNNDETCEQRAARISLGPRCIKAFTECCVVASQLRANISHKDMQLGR

[3] = molecular target: T3, C5a-M70A; assay: as above
T3 single chain: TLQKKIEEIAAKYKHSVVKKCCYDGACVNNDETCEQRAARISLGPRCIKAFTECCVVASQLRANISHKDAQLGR

[4] = molecular target: T4, C5a-Q71A; assay: as above
T4 single chain: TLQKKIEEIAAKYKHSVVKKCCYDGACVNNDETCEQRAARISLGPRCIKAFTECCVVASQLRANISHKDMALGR

[5] = molecular target: T5, C5a-D69A; assay: as above
T5 single chain: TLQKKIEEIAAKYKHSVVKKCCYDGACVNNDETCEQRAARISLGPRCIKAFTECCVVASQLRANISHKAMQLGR

[6] = molecular target: T6, C5a-K68A; assay: as above
T6 single chain: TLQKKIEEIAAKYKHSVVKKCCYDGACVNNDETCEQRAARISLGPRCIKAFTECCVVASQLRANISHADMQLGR

[7] = molecular target: T7, C5a-L72A; assay: as above
T7 single chain: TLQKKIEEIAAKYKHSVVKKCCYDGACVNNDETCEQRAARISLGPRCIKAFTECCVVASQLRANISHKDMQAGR

[8] = molecular target: T8, C5a-A63R; assay: as above
T8 single chain: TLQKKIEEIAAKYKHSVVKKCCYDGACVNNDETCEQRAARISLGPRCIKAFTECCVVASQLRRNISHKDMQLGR

[9] = molecular target: T9, C5a-S66R; assay: as above
T9 single chain: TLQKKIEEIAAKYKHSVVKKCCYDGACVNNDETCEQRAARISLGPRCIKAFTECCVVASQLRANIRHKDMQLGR

[10] = molecular target: T10, C5a-H67A; assay: as above
T10 single chain: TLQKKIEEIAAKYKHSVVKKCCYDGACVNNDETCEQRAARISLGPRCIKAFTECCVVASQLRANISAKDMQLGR

[11] = molecular target: T11, C5a-S66A; assay: as above
T11 single chain: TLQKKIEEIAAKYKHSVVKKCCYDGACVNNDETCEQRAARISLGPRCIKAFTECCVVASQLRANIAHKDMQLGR

[12] = molecular target: T12, human C5a (source not stated) (human, UniProt P01031 678-751); assay: cell-based or functional assay
T12 sequence: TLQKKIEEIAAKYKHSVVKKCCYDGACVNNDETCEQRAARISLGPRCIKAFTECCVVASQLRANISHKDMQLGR

[13] = molecular target: T13, human endogenous C5a (human, UniProt P01031 678-751, limits assumed); assay: cell-based or functional assay
T13 sequence: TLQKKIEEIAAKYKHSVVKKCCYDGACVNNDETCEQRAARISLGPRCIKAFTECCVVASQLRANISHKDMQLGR

[14] = molecular target: T14, C5a-V28F; assay: ELISA on the coated C5a protein, antibody titrated, OD410
T14 single chain: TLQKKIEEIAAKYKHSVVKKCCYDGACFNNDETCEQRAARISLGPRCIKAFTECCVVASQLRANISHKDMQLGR

[15] = molecular target: T15, C5a-K20A; assay: as above
T15 single chain: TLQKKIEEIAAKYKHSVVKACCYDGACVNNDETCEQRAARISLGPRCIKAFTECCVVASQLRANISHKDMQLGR

[16] = molecular target: T16, C5a-Y13A; assay: as above
T16 single chain: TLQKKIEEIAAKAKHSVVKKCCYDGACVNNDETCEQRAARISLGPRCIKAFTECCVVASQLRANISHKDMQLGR

[17] = molecular target: T17, C5a-N29A; assay: as above
T17 single chain: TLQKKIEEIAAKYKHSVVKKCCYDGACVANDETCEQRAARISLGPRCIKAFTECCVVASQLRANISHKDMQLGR

[18] = molecular target: T18, C5a-C27A; assay: as above
T18 single chain: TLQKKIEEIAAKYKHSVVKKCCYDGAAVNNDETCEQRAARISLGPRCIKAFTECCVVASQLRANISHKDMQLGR

[19] = molecular target: T19, C5a-V28A; assay: as above
T19 single chain: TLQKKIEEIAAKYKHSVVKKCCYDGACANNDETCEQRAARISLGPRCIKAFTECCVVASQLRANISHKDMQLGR

[20] = molecular target: T20, C5a-V28R; assay: as above
T20 single chain: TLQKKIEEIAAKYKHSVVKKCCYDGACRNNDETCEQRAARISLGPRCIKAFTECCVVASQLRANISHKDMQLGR

[21] = molecular target: T21, C5a-Y23A; assay: as above
T21 single chain: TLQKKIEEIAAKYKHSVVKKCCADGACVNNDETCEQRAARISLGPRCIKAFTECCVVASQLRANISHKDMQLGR

T1 sequence (P01031 19-673 limits assumed, one chain of several): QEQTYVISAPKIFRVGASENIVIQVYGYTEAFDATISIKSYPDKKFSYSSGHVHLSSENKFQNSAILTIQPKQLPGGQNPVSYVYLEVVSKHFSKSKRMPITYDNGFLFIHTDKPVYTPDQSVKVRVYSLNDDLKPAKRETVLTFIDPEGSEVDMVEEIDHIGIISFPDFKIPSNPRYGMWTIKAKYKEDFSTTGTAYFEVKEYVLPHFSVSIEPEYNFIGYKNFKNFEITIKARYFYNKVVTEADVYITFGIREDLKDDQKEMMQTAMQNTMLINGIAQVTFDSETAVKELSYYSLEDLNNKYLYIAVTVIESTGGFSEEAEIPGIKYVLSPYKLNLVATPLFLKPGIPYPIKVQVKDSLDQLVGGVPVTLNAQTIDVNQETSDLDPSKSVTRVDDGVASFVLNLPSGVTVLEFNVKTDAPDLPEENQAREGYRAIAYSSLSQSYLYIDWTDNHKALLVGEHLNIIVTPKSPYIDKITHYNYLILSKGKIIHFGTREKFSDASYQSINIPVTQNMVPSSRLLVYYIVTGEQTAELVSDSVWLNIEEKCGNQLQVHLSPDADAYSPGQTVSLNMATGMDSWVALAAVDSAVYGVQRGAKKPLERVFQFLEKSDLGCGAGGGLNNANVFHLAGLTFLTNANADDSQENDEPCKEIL

B1: Cab42-IgG1 (antibody, V domains shown)
VH: EMQLVESGGGLVQPGGSLRLSCAASGFTFSDYYMQWVRQAPGKGPEWVGLIRNKAVGETTQYAASVKGRFTISRDDSKNSVYLQMNSLKTEDTAVYYCVSRAGPPGLSWGQGVLVTVSS
VL: DIVMTQSPLSLPVTPGEPASISCRSSQSLLASDAYNYIDWYLQKPGQSPQLLIYGGSNRASGVPDRFSGSGSGTDFTLKISRVEAEDVGVYFCLQHRALPPTFGQGTKLEIK
notes: Full-length human IgG1; It was biotinylated in the peptide-Fc ELISA
- EC50 (read off the curve) [1]: ~10 ng/mL
- binding result [2]: binds
- binding result [3]: binds
- binding result [4]: binds
- binding result [5]: binds
- binding result [6]: binds
- binding result [7]: binds
- binding result [8]: binds
- binding result [9]: binds
- binding result [10]: binds
- binding result [11]: binds
- ROS IC50 [12]: 0.78 nM
- eC5a IC50(nM), CD11b up-regulation on human neutrophils in whole blood [13]: 2.05 nM
- eC5a+50*C5 IC50(nM), CD11b up-regulation on human neutrophils in whole blood with 50 times more C5 [13]: 31 nM
- binding result [14]: binds
- binding result [15]: binds
- binding result [16]: binds
- binding result [17]: binds
- binding result [18]: binds
- binding result [19]: binds
- binding result [20]: binds
- binding result [21]: binds
